Laboratory results: paper PMC8528238 (Nature, 2021)

Columns and labels:
[1] = target: T1, monomeric SARS-CoV-2 RBD (wildtype Spike RBD monomer) (SARS-CoV-2, Wuhan strain, UniProt P0DTC2); test: SPR
[2] = target: SARS-CoV-2 RBD sortase A conjugated nanoparticle (24-mer SARS-CoV-2 RBD-ferritin nanoparticle) (SARS-CoV-2, Wuhan strain, UniProt P0DTC2); test: BLI
[3] = target: T1, monomeric SARS-CoV-2 RBD (wildtype …); test: ELISA

B1: DH1047 antigen binding fragment (Fab) (Fab, V domains shown)
VH: QVQLVQSGAEVKKPGASVQVSCQASANTFTNHYIHWVRQAPGQGLEWMGIIYPTGGNTIYAQGFQGRVTMTRDTSLNTIYLELSSLRSEDTAVYYCARDVRVDDSWSGYDLLSGGTYFDYWGQGTLVTVSS
VL: not shown
Kd [1]: < 0.02 nM

B2: DH1041, SARS-CoV-2-specific ACE2-binding site-focused RBD neutralizing antibody (antibody, V domains shown)
VH: EVQLVESGGGLVQPGGSLRLSCAASGVTFSSYWMSWVRQAPGKGLEWVANIRQDGSEKYSVDSVKGRFTISRDNAKNSLYLQMNSLRAEDTAVYYCARARRADNSGYYGFHFDCWGQGTLVTVSS
VL: QSVLTQPPSVSGAPGQRVTISCTGSSSNIGAGYDVHWYQQLPGTAPKLLIYGNNNRPSGVPDRFSDSKSGTSASLAITRLQAEDEADYYCQSYDSSLSGWVFGGGTKLTVL
binding result [2]: binds
binding result [3]: binds
